{"source": "the RNAGym collection of RNA variant scans (doi:10.7554/elife.80360)", "parents": {"B1": {"name": "HDV Ribozyme (parent)", "chain": "GGCCGGCAUGGUCCCAGCCUCCUCGCUGGCGCCGGCUGGGCAACAUUCCGAGGGGACCGUCCCCUCGGUAAUGGCGAAUGGGACCCA"}}}
{"variants_of": "B1", "assay": "self-cleavage, relative activity (ratio to wild type); higher = more cleavage; co-transcriptional"}
{"variant": "G34C C63A", "self-cleavage": 0.166}
{"variant": "G34U A43C", "self-cleavage": 0.243}
{"variant": "G34U A43U", "self-cleavage": 0.104}
{"variant": "G34U A43G", "self-cleavage": 0.0978}
{"variant": "G35A G38A", "self-cleavage": 0.0923}
{"variant": "G35A G38U", "self-cleavage": 0.145}
{"variant": "G35A C58U", "self-cleavage": 0.478}
{"variant": "G35A C58G", "self-cleavage": 0.594}
{"variant": "G35A C58A", "self-cleavage": 0.46}
{"variant": "G35C G76A", "self-cleavage": 0.514}
{"variant": "G35C G76C", "self-cleavage": 0.305}
{"variant": "G34C G74U", "self-cleavage": 0.136}
{"variant": "G34C G74C", "self-cleavage": 0.0875}
{"variant": "G34C G74A", "self-cleavage": 0.0354}
{"variant": "G35C A78G", "self-cleavage": 0.262}
{"variant": "G35C A78U", "self-cleavage": 0.0475}
{"variant": "G35A A83U", "self-cleavage": 0.507}
{"variant": "G35A A83G", "self-cleavage": 0.258}
{"variant": "G34U C44U", "self-cleavage": 0.0241}
{"variant": "G34U C44G", "self-cleavage": 0.173}
{"variant": "G34C G50A", "self-cleavage": 0.287}
{"variant": "G34U C62G", "self-cleavage": 0.117}
{"variant": "G34C U65C", "self-cleavage": 0.573}
{"variant": "G34C A42U", "self-cleavage": 0.262}
{"variant": "G34C A42G", "self-cleavage": 0.0554}
{"variant": "G34U C49G", "self-cleavage": 0.166}
{"variant": "G34U U60C", "self-cleavage": 0.175}
{"variant": "G34U U60A", "self-cleavage": 0.0817}
{"variant": "G34U U60G", "self-cleavage": 0.166}
{"variant": "G35C A51U", "self-cleavage": 0.396}
{"variant": "G34C C66A", "self-cleavage": 0.35}
{"variant": "G34C C66U", "self-cleavage": 0.266}
{"variant": "G34U G39A", "self-cleavage": 0.174}
{"variant": "G35A U69G", "self-cleavage": 0.541}
{"variant": "G35A U69C", "self-cleavage": 0.591}
{"variant": "G34A U47C", "self-cleavage": 0}
{"variant": "G35A U65C", "self-cleavage": 0.521}
{"variant": "G34C U46C", "self-cleavage": 0.332}
{"variant": "G34C U79G", "self-cleavage": 0.0615}
{"variant": "G35C A83U", "self-cleavage": 0.0898}
{"variant": "G34U C57U", "self-cleavage": 0.174}
{"variant": "G34C A45G", "self-cleavage": 0.147}
{"variant": "G34C G73A", "self-cleavage": 0.106}
{"variant": "G34C G73C", "self-cleavage": 0.17}
{"variant": "G34A U46A", "self-cleavage": 0.121}
{"variant": "G34U G80U", "self-cleavage": 0.128}
{"variant": "G35A U79A", "self-cleavage": 0.47}
{"variant": "G35A A45G", "self-cleavage": 0.443}
{"variant": "G35C G50A", "self-cleavage": 0.0528}
{"variant": "G35C G50U", "self-cleavage": 0.272}
{"variant": "G34U G35A", "self-cleavage": 0.204}
{"variant": "G34U G35C", "self-cleavage": 0.154}
{"variant": "G34C C84G", "self-cleavage": 0.166}
{"variant": "G34C C84A", "self-cleavage": 0}
{"variant": "G35C G59U", "self-cleavage": 0.204}
{"variant": "G35C G59C", "self-cleavage": 0.424}
{"variant": "G35A G82A", "self-cleavage": 0.265}
{"variant": "G35A G82C", "self-cleavage": 0.266}
{"variant": "G35A", "self-cleavage": 0.605}
{"variant": "G35C", "self-cleavage": 0.254}
{"variant": "G34A U72G", "self-cleavage": 0.0326}
{"variant": "G34A U72C", "self-cleavage": 0.0692}
{"variant": "G35A G74A", "self-cleavage": 0.157}
{"variant": "G35A G74C", "self-cleavage": 0.208}
{"variant": "G35C G38A", "self-cleavage": 0.155}
{"variant": "G35C G38C", "self-cleavage": 0.128}
{"variant": "G35A U60C", "self-cleavage": 0.554}
{"variant": "G35A U60A", "self-cleavage": 0.596}
{"variant": "G34C C57A", "self-cleavage": 0.288}
{"variant": "G34C U69G", "self-cleavage": 0.703}
{"variant": "G34C U69C", "self-cleavage": 0.249}
{"variant": "G35A G53C", "self-cleavage": 0.65}
{"variant": "G34C G35U", "self-cleavage": 0.306}
{"variant": "G34C G35A", "self-cleavage": 0.115}
{"variant": "G34U G82C", "self-cleavage": 0.138}
{"variant": "G34U G82U", "self-cleavage": 0.0631}
{"variant": "G35C C57U", "self-cleavage": 0.185}
{"variant": "G35C C75U", "self-cleavage": 0.0692}
{"variant": "G35A C66A", "self-cleavage": 0.415}
{"variant": "G35A C66G", "self-cleavage": 0.655}
{"variant": "G34C A87U", "self-cleavage": 0.192}
{"variant": "G34C A87C", "self-cleavage": 0.224}
{"variant": "G34C A87G", "self-cleavage": 0.089}
{"variant": "G35A G76C", "self-cleavage": 0.708}
{"variant": "G35A G76U", "self-cleavage": 0.902}
{"variant": "G35C G39A", "self-cleavage": 0.178}
{"variant": "G35A G52C", "self-cleavage": 0.409}
{"variant": "G35A G52A", "self-cleavage": 0.47}
{"variant": "G35A G52U", "self-cleavage": 0.513}
{"variant": "G35C A42U", "self-cleavage": 0.0339}
{"variant": "G34C C85U", "self-cleavage": 0.277}
{"variant": "G35A U47G", "self-cleavage": 0.443}
{"variant": "G35A U47C", "self-cleavage": 0.489}
{"variant": "G34C G52U", "self-cleavage": 0.155}
{"variant": "G34C G52C", "self-cleavage": 0.267}
{"variant": "G35C A77U", "self-cleavage": 0.181}
{"variant": "G35C A77C", "self-cleavage": 0.0898}
{"variant": "G35C A77G", "self-cleavage": 0.18}
{"variant": "G35C G55A", "self-cleavage": 0.342}
{"variant": "G35C G55C", "self-cleavage": 0.366}
{"variant": "G35C G55U", "self-cleavage": 0.0615}
{"variant": "G35C G82C", "self-cleavage": 0.0519}
{"variant": "G35C G82U", "self-cleavage": 0.0723}
{"variant": "G35A A70G", "self-cleavage": 0.491}
{"variant": "G35A A70C", "self-cleavage": 0.434}
{"variant": "G34C A83C", "self-cleavage": 0.0898}
{"variant": "G34C A83G", "self-cleavage": 0.0959}
{"variant": "G34C G81U", "self-cleavage": 0.0639}
{"variant": "G34C C61G", "self-cleavage": 0.231}
{"variant": "G34U G52U", "self-cleavage": 0.0588}
{"variant": "G34U G52C", "self-cleavage": 0.101}
{"variant": "G34U C84A", "self-cleavage": 0.176}
{"variant": "G34U C84U", "self-cleavage": 0.261}
{"variant": "G34U U69G", "self-cleavage": 0.0361}
{"variant": "G35C U60C", "self-cleavage": 0.237}
{"variant": "G34U U47G", "self-cleavage": 0.267}
{"variant": "G34U U47A", "self-cleavage": 0.128}
{"variant": "G35C U69A", "self-cleavage": 0.443}
{"variant": "G35C U69G", "self-cleavage": 0.277}
{"variant": "G34U A71U", "self-cleavage": 0.208}
{"variant": "G34U A71G", "self-cleavage": 0.154}
{"variant": "G34C G82A", "self-cleavage": 0.0308}
{"variant": "G34C G82U", "self-cleavage": 0.0652}
{"variant": "G34U G59U", "self-cleavage": 0.229}
{"variant": "G35A G68U", "self-cleavage": 0.584}
{"variant": "G35A G68C", "self-cleavage": 0.676}
{"variant": "G35A G68A", "self-cleavage": 0.496}
{"variant": "G35A U72A", "self-cleavage": 0.208}
{"variant": "G35C G67C", "self-cleavage": 0.0519}
{"variant": "G35C G67U", "self-cleavage": 0.133}
{"variant": "G34U A51G", "self-cleavage": 0.339}
{"variant": "G34U A51C", "self-cleavage": 0.0707}
{"variant": "G34A G81U", "self-cleavage": 0.07}
{"variant": "G34U G73C", "self-cleavage": 0.289}
{"variant": "G35C U65A", "self-cleavage": 0.233}
{"variant": "G35C U65G", "self-cleavage": 0.314}
{"variant": "G35C U65C", "self-cleavage": 0.219}
{"variant": "G35A G67U", "self-cleavage": 0.361}
{"variant": "G35A G67C", "self-cleavage": 0.564}
{"variant": "G35A G67A", "self-cleavage": 0.328}
{"variant": "G35C C64U", "self-cleavage": 0.348}
{"variant": "G35A A51C", "self-cleavage": 0.467}
{"variant": "G35A A51U", "self-cleavage": 0.496}
{"variant": "G35C G74A", "self-cleavage": 0.0779}
{"variant": "G34U U79A", "self-cleavage": 0.138}
{"variant": "G34U U79C", "self-cleavage": 0.201}
{"variant": "G34U G55A", "self-cleavage": 0.114}
{"variant": "G34U G55C", "self-cleavage": 0.102}
{"variant": "G35C C58A", "self-cleavage": 0.175}
{"variant": "G35C C63U", "self-cleavage": 0.492}
{"variant": "G35C C63A", "self-cleavage": 0.259}
{"variant": "G35C A43C", "self-cleavage": 0.17}
{"variant": "G35C A43G", "self-cleavage": 0.111}
{"variant": "G34U C36U", "self-cleavage": 0.0482}
{"variant": "G34U C36A", "self-cleavage": 0.106}
{"variant": "G35A A42G", "self-cleavage": 0.17}
{"variant": "G34U C86U", "self-cleavage": 0.187}
{"variant": "G34U C86A", "self-cleavage": 0.325}
{"variant": "G34U C86G", "self-cleavage": 0.205}
{"variant": "G34C U72A", "self-cleavage": 0.17}
{"variant": "G34C U72G", "self-cleavage": 0.222}
{"variant": "G35A G55U", "self-cleavage": 0.577}
{"variant": "G35A G55A", "self-cleavage": 0.736}
{"variant": "G34C A56U", "self-cleavage": 0.277}
{"variant": "G34U C41G", "self-cleavage": 0.0723}
{"variant": "G34U C41A", "self-cleavage": 0.133}
{"variant": "G34U U46A", "self-cleavage": 0.0639}
